Earlier results as cited in publication PMC12326988, “Synthetic host defense peptide inhibits SARS-CoV-2 replication in vitro” (Antimicrobial Agents and Chemotherapy, 2025).

Test system: binding of the SARS-CoV-2 RBD to its human ACE2 receptor

B1: HD5 (peptide, UniProt Q01523 20-94, looked up)
Defensin alpha 5: ESLQERADEATTQKQSGEDNQDLAISFAGNGLSALRTSGSQARATCYCRTGRCATRESLSGVCEISGRLYRLCCR
modifications: Defensin-5
affinity, interference with binding of SARS-CoV-2 RBD to human ACE2: 76.2 nM
